In the supplement of paper PMC9112550, “Optimization of the antimicrobial peptide Bac7 by deep mutational scanning” (BMC Biology, 2022):

Test system: Escherichia coli TOP10
Assay: shrunken log2 fold change of peptide-encoding DNA abundance (4.5 h post-induction vs induction); higher = less antimicrobial activity (less host growth inhibition)
Conditions: time post-induction: 4.5 h; library: site-saturation at positions 5, 18, 19, 20
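Note: peptides expressed intracellularly from a pBAD plasmid library in pooled LB shake-flask culture, induced with 0.3% L-arabinose, DNA abundance read by NGS, three biological replicates, DESeq2 with apeglm shrinkage.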

Sequence | shrunken log2 fold change
RRIRARPPRLPRPRPRPAALPRP | 0.805
RRIRARPPRLPRPRPRPACAPRP | 0.922
RRIRARPPRLPRPRPRPADKPRP | 0.197
RRIRARPPRLPRPRPRPAECPRP | 0.041
RRIRARPPRLPRPRPRPAFGPRP | 0.6
RRIRARPPRLPRPRPRPAFIPRP | 0.142
RRIRARPPRLPRPRPRPAFSPRP | 0.215
RRIRARPPRLPRPRPRPAFTPRP | 0.315
RRIRARPPRLPRPRPRPAHRPRP | 0.326
RRIRARPPRLPRPRPRPAIFPRP | 0.562
RRIRARPPRLPRPRPRPAILPRP | -0.087
RRIRARPPRLPRPRPRPAIVPRP | -0.123
RRIRARPPRLPRPRPRPAKFPRP | 0.168
RRIRARPPRLPRPRPRPAKGPRP | 0.342
RRIRARPPRLPRPRPRPAKQPRP | -0.197
RRIRARPPRLPRPRPRPALGPRP | 0.73
RRIRARPPRLPRPRPRPAMAPRP | 0.479
RRIRARPPRLPRPRPRPANMPRP | -0.0999
RRIRARPPRLPRPRPRPAPYPRP | -0.0625
RRIRARPPRLPRPRPRPAQHPRP | 0.326
RRIRARPPRLPRPRPRPAQIPRP | -0.0241
RRIRARPPRLPRPRPRPATYPRP | 0.0208
RRIRARPPRLPRPRPRPAVDPRP | 0.289
RRIRARPPRLPRPRPRPAVHPRP | 0.175
RRIRARPPRLPRPRPRPAVMPRP | 0.399
RRIRARPPRLPRPRPRPAWFPRP | 0.303
RRIRARPPRLPRPRPRPAWMPRP | -0.00906

Sequence | shrunken log2 fold change
RRIRARPPRLPRPRPRPCAGPRP | 0.477
RRIRARPPRLPRPRPRPCCFPRP | 0.274
RRIRARPPRLPRPRPRPCCLPRP | 0.0817
RRIRARPPRLPRPRPRPCCRPRP | 0.406
RRIRARPPRLPRPRPRPCDDPRP | -0.0166
RRIRARPPRLPRPRPRPCEMPRP | 0.345
RRIRARPPRLPRPRPRPCFIPRP | -0.333
RRIRARPPRLPRPRPRPCGWPRP | 0.365
RRIRARPPRLPRPRPRPCIPPRP | 2.51
RRIRARPPRLPRPRPRPCLSPRP | 0.233
RRIRARPPRLPRPRPRPCLWPRP | -0.199
RRIRARPPRLPRPRPRPCMRPRP | 0.238
RRIRARPPRLPRPRPRPCNAPRP | 0.0237
RRIRARPPRLPRPRPRPCNGPRP | -0.139
RRIRARPPRLPRPRPRPCPDPRP | -0.161
RRIRARPPRLPRPRPRPCQNPRP | 0.105
RRIRARPPRLPRPRPRPCRMPRP | -0.353
RRIRARPPRLPRPRPRPCRQPRP | -0.0784
RRIRARPPRLPRPRPRPCSSPRP | 0.0291
RRIRARPPRLPRPRPRPCTSPRP | 0.0117
RRIRARPPRLPRPRPRPCVAPRP | 0.715
RRIRARPPRLPRPRPRPCVSPRP | -0.0271
RRIRARPPRLPRPRPRPCYHPRP | -0.0657
RRIRARPPRLPRPRPRPDEYPRP | -0.0116
RRIRARPPRLPRPRPRPDGAPRP | 0.673
RRIRARPPRLPRPRPRPDGEPRP | 0.209
RRIRARPPRLPRPRPRPDGGPRP | 0.432
